Target: the molecule itself
Assay: SDS-resistant oligomers on SDS-PAGE and western blot; PAE cells stably expressing the tagged transporter, vehicle (DMSO) or 20 µM AIM-100 for 2 hr at 37°C (also after cocaine, dopamine, amphetamine, modafinil, KRCA-0008, CHC siRNA, at 4°C or 20°C); lysis in TGH buffer, Laemmli buffer (2% SDS, 5% β-mercaptoethanol) 5 min at 95°C, 7.5% SDS-PAGE, blot with GFP antibody; oligomers (O) against monomers (M)

B1: YFP-DAT additionally tagged with an extracellular hemagglutinin (HA) epitope (YFP-HA-DAT) (natural protein, human, UniProt Q01959 1-620, looked up)
chain: MSKSKCSVGLMSSVVAPAKEPNAVGPKEVELILVKEQNGVQLTSSTLTNPRQSPVEAQDRETWGKKIDFLLSVIGFAVDLANVWRFPYLCYKNGGGAFLVPYLLFMVIAGMPLFYMELALGQFNREGAAGVWKICPILKGVGFTVILISLYVGFFYNVIIAWALHYLFSSFTTELPWIHCNNSWNSPNCSDAHPGDSSGDSSGLNDTFGTTPAAEYFERGVLHLHQSHGIDDLGPPRWQLTACLVLVIVLLYFSLWKGVKTSGKVVWITATMPYVVLTALLLRGVTLPGAIDGIRAYLSVDFYRLCEASVWIDAATQVCFSLGVGFGVLIAFSSYNKFTNNCYRDAIVTTSINSLTSFSSGFVVFSFLGYMAQKHSVPIGDVAKDGPGLIFIIYPEAIATLPLSSAWAVVFFIMLLTLGIDSAMGGMESVITGLIDEFQLLHRHRELFTLFIVLATFLLSLFCVTNGGIYVFTLLDHFAAGTSILFGVLIEAIGVAWFYGVGQFSDDIQQMTGQRPSLYWRLCWKLVSPCFLLFVVVVSIVTFRPPHYGAYIFPDWANALGWVIATSSMAMVPIYAAYKFCSLPGSFREKLAYAIAPEKDRELVDRGEVRQFTLRHWLKV
notes: Dopamine transporter (DAT), human; Monomer runs at 95 kDa, SDS-resistant oligomer at about 290 kDa; also called dopamine transporter; human DAT; source: PAE cells, stably expressed, in lysate
  fold increase of the fraction of the ~290 kDa oligomer species with AIM-100 against vehicle: > 5 fold
  stoichiometry N: ~3

Reference: paper PMC5896956, “Small molecule induced oligomerization, clustering and clathrin-independent endocytosis of the dopamine transporter” (eLife, 2018)
